We go through eleven molecules from patent US20240174746A1 (Alector, published 2024).

Residue numbers refer to the chain shown, from its start.

The labels stand for the following.
B1: TM-87 (antibody, V domains shown)
VH: EVQLQQSGPVLVKPGASVKLSCKASGYTFTDYYMNWVKQSHGKSLEWIGVINPYNGATSYNQKFQDKATLTVDKSSSTAYMGLNSLTSEDSAVYYCANGNYDWYFDVWGTGTTVTVSS
VL: DVQITQSPSYLAASPGETITINCRASRSISKYLAWYQEKPGKTNKLLIYSGSTLQSGIPSRFSGSGSGTDFTLTISSLEPEDFAVYYCQQHNEYPLTFGAGTKLELK
notes: Purified from mouse hybridoma
B2: TM-92 (antibody, V domains shown)
VH: EVQLQQSGPELVKPGASVKIPCKASGYTFTDYTMDWVKQSPGKSLEWIGHINPNDGGTFYNQKFKGKATLTVDKSSSTAYMELRSLTSEDSAVYYCARWVYYYGISYEGGAMDYWGQGTSVTVSS
VL: B1 VL with R27K, V85M, L96W, A100G, L106I
notes: Purified from mouse hybridoma
B3: TM-93 (antibody, V domains shown)
VH: QVQLKESGPGLVAPSQSLSITCTVSGFSLSSYGISWVRQPPGKGLEWLGVIWTGGGTNYNSALESRLSITKDNSKSQVFLKMNSLQTDDTARYYCARNPPKIFYDYLMYFDYWGQGTTVTVSS
VL: DIVMTQSHKLMSTSVGDRVSITCKASQDVGSAVAWYQQKPGQSPQLLIYWSSTRLPGVPDRFTGSGSGTDFTLTISNVQSEVLADYFCQQYTSYPLTFGGGTKLEIK
notes: Purified from mouse hybridoma
B4: TM-88 (antibody, V domains shown)
VH: EAQLQQSGPVLVKPGASVKMSCKTSGYTFTDYYINWVKQSHGKSLEWIGVINPYSGATYYTQKFKGKATLTVDKSSSTAYMELNSQTSEDSAVYYCARGGYDYGHWYFDVWGTGTTVTVSS
VL: ETTVTQSPASLSMAIGEKVTIRCITSSDIDDHMNWYRQKPGEPPEFLISEGNALRPGVPSRFSSSGYGTDFIFTIENILSEDVADYYCLQSDNLPLTFGAGTKLELK
notes: Purified from mouse hybridoma
B5: TM-78 (antibody, V domains shown)
VH: QVQLQQPGAELVKPGASVKLSCKASGYTFTNHWMHWVRQRPGQGLEWIGNIDPSDSDTHYNHKFKDKATLIVDKSSSTAYLQLSSLTSEDSAVFYCARSRGGYYDYGEAMDYWGQGTSVTVSS
VL: DIVMTQATPSIPVTPGESVSISCRSSKSLLHVNGNTYLFWFLQRPGQSPQLLIYRMSNLASGVPDRFSGSGSGTAFTLRISRVEAEDVGVYYCMQHLEYPFTFGSGTKLEIK
notes: Purified from mouse hybridoma
B6: TM-80 (antibody, V domains shown)
VH: QVQLQQPGAELVKPGASVKLSCKASGYTFTTFWMHWVKQRPGQGLEWIGNIDPSDSETHYNQEFKDKATLTVDRSSNTAYMQLSSLTSEDSAVYYCARSSNWDNFDYWGQGTAVTVSS
VL: B5 VL with T8A, I11V, K27Q, N35H, F39Y, A75V, A85T, V90I, E98Q
notes: Purified from mouse hybridoma
B7: TM-86 (antibody, V domains shown)
VH: EVQLQQSGPVLVKPGASVKMSCKASGYTFTDYYIHWVKQSHGRSLEWIGVISPYNDNTNYNQKFKGKATLTVDKSSSTAYMELNSLTSEDSAVYYCVRTYYSNYFDYWGQGTTLTVSS
VL: DIVMTQSPSSLSVSAGEKVTMSCKSSQSLLNSGNQKNYLAWHQQRPGQPPKLLIYGASTRESGVPDRFTGSGSGTEFTLTISSVQAEDLAVYYCQNDHSYPLTFGAGTKLELK
notes: Purified from mouse hybridoma
B8: TM-85 (antibody, V domains shown)
VH: QVQLQQPGAELVRAGTSVKLSCKASGYTFIGYWMHWVKQRPGRGLEWIGRIDPYSGDTRYNEKFKNKATLTVDKPSSTAYMQLSSLTSEDSAVYYCARYGLGHAMDYWGQGTSVTVSS
VL: DIAMSQSQKFMSTSVGDRVSVTCKASQNVGTNVAWYQQKPGQSPKALIYSASYRYSGVPDRFTGSGSGTDFTLTISNVQSEDLAEYFCQQYNSYPLTFGAGTKLEMK
notes: Purified from mouse hybridoma
B9: TM-91 (antibody, V domains shown)
VH: DVQLQESGPGLVKPSQSLSLTCSVTGYSITSGYYWDWIRQFPGNKLEWMGYISYDGNNNYNPSLKNRISITRDTSKNQFFLKLNSVTTEDTATYYCARAVYSVGFAYWGQGTLVTVSS
VL: B8 VL with A3V, S5T, G30Y, A46P, A100G, M106I
notes: Purified from mouse hybridoma
B10: TM-84 (antibody, V domains shown)
VH: QVQLQQSGAELVKPGASVKMSCKASGYTFTTFPIEWMKQNHGKSLEWIGNFHPYNDDTKYNEKFKGKATLTVEKSSSTVYLELSRLTSDDSAVYYCARYFYGGMDYWGQGTSVTVSS
VL: DIQMTQSPASLSVSVGETVTITCRASENIYSSLGWYHQKQGKSPQLLVFAATNLADGVPSRFSGSGSGTQYSLKINSLQSEDFGTYYCQHLWSVPWTFGGGTKLEIK
notes: Purified from mouse hybridoma
B11: TM-94 (antibody, V domains shown)
VH: EVQLQQSGPELVKPGASVKIPCKASGYTFTDYNMDWVKQSHGKSLEWIGDINPYNGGTLYNQKFKGKATLTVDKSSNTAYMEIRSLTYEDTAVYYCARVGYHGTPDYWGQGTTVTVSS
VL: DVVMTQTPLSLPVSLGDQASISCRSSQSLVYSNGNTYLHWYLQRPGQSPKLLIYKVSNRFSGVPDRFSGSGSGTDFTLKISRVEAEDLGVYFCSQSTHVYTFGGGTKLEIK
notes: Purified from mouse hybridoma

One experiment concerns the target T1, human TMEM106B (human, UniProt Q9NUM4 2-274).
T1 construct: Full-length cDNA transiently transfected into HEK293 cells; also called huTMEM106B
Put plainly: flow cytometry, HEK293 cells transiently transfected with human TMEM106B.
Method: (§1) For screening of the hybridoma cell culture supernatants, humanTMEM106B-transfected HEK293 cells were aliquoted in 96-well round bottom plates (2×10⁵ cells per well) and incubated with 50 μL of hybridoma cell culture supernatant on ice for 30 minutes. […] Cell sorting was performed on a FACS Canto system (BD Biosciences) or iQue (Intellicyt), with sort gates drawn to exclude dead (i.e., propidium iodide-positive) cells. Median fluorescence intensity (MFI) of anti-mouse-APC MFI on TMEM106B+ HEK293 cells was calculated for each clone, and those displaying a signal of at least 2-fold over background compared to a secondary-antibody only well were taken forward for further analysis and characterization.
Take B1: the “fold-change in binding over parental HEK293 cells” value (“fold-change in binding” below) is 12.8 fold.

As for B2, the “fold-change in binding” value stood at 9.14 fold.

B3: the “fold-change in binding” value came out at 11.5 fold.

As to B4, the “fold-change in binding” value worked out at 7.81 fold.

As to B5, the “fold-change in binding” value came to 9.6 fold.

Consider B6, for which the “fold-change in binding” value was 9.21 fold.

For the molecule B7, the “fold-change in binding” value was 9.73 fold.

With B8, the “fold-change in binding” value is 0.26 fold.

Take B9: the “fold-change in binding” value was 5.22 fold.

On to B10, for which the “fold-change in binding” value amounted to 17.1 fold.

As to B11, the “fold-change in binding” value was 3.79 fold.

For another experiment, the target named is T2, cynomolgus (cyno) TMEM106B (cynomolgus, UniProt Q9NUM4 2-274 (human entry)).
T2 construct: Full-length cDNA transiently transfected into HEK293 cells
Put plainly: flow cytometry, HEK293 cells transiently transfected with cyno TMEM106B.
Method: as §1
Consider B1, for which the “fold-change in binding” value came out at 7.21 fold.

For B2, the “fold-change in binding” value is 5.7 fold.

For B3, the “fold-change in binding” value amounted to 9.21 fold.

As for B4, the “fold-change in binding” value came out at 7.57 fold.

As to B5, the “fold-change in binding” value was determined as 6.88 fold.

Turning to B6, the “fold-change in binding” value came out at 4.33 fold.

On to B7, for which the “fold-change in binding” value amounted to 5.81 fold.

For B8, the “fold-change in binding” value came out at 0.18 fold.

With B9, the “fold-change in binding” value is 2.45 fold.

As to B10, the “fold-change in binding” value was 8.43 fold.

Regarding B11, the “fold-change in binding” value is 6.1 fold.

The target in a further experiment is T3, mouse TMEM106B (mouse, UniProt Q80X71 2-275).
T3 construct: Full-length cDNA transiently transfected into HEK293 cells; also called muTMEM106B; murine TMEM106B
In words: flow cytometry, HEK293 cells transiently transfected with murine TMEM106B.
Method: as §1
For the molecule B1, the “fold-change in binding” value was found to be 27 fold.

B2: the “fold-change in binding” value worked out at 5.15 fold.

For B3, the “fold-change in binding” value was determined as 8.83 fold.

As to B4, the “fold-change in binding” value was 5.84 fold.

In the case of B5, the “fold-change in binding” value is 0.99 fold.

As to B6, the “fold-change in binding” value was determined as 0.39 fold.

Consider B7, for which the “fold-change in binding” value is 5.78 fold.

Turning to B8, the “fold-change in binding” value came to 0.19 fold.

With B9, the “fold-change in binding” value stood at 2.41 fold.

As for B10, the “fold-change in binding” value was 9.62 fold.

As for B11, the “fold-change in binding” value stood at 2.35 fold.
